From publication PMC9637997

Assays:
[1] = molecular target: His-tagged GMAP (truncated form, 1-490 aa); assay: GST-pulldown, quantified band intensity; settings: His-GMAP truncated form (aa 1-490); N = 3; parent: est. 3.0 (est. ± 0.7 SD); read off a plot
GST-tagged Atg8a-WT = GST-tagged Atg8a-WT (UniProt Q9W2S2); assay: GST-pulldown, quantified band intensity; settings: GMAP truncated form (1-490 aa); N = 3; parent: est. 1.6 (est. ± 0.18 SD); read off a plot
Chain of UniProt Q9W2S2 (Q9W2S2 entry or part of it): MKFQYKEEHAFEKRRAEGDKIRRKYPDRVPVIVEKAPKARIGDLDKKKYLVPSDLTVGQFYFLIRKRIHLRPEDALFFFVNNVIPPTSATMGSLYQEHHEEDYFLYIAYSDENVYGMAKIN

| response [1] | response (GST-tagged Atg8a-WT) | Substance |
| --- | --- | --- |
| 1 | – | GST-tagged Atg8a-WT (from UniProt Q9W2S2) K48A; Y49A |
| – | 1 | His-tagged GMAP (truncated form, 1-490 aa) F322A; V325A |
